Reference: patent US20230203107A1, “PEPTIDE FOR TREATING SEPSIS DERIVED FROM RV3364C PROTEIN OF MYCOBACTERIUM TUBERCULOSIS” (priority 2021, published 2023)

Target: T1, SNX9 BAR domain (Homo sapiens, UniProt Q9Y5X1)
T1 construct: different regions 1-595, 1-250, 250-361, and 392-595 of SNX9; expressed in transfected cells; host or cells: 293T (pEF-IRES-Puro expression vector)
Type: cell-based

T1 sequence (Q9Y5X1 392-595): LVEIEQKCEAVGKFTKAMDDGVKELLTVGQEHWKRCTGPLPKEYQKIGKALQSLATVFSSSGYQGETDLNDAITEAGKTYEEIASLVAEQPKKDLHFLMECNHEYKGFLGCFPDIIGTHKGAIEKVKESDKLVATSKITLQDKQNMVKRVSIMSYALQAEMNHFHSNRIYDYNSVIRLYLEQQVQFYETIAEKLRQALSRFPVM

Substance: Rv3364c: Rv3364c protein of Mycobacterium tuberculosis, expressed in 293T cells from a Flag-tagged plasmid
- domain of SNX9 interacting with Rv3364c: interacted with SNX9 through a Bin-Amphiphysin-Rvs (BAR) domain
